Data reported in patent publication US20260242478A1 (published 2026).
Where no end group is shown, it is not given here.

B1: Phage-1232 (peptide)
peptide: YCEGHDIRYMMKCL
modifications: cysteine pairing not given here; also: displayed on phage by fusion to pIII, linker and pIII sequence not given here
notes: Tested as clonal phage supernatant
B2: Phage-1226 (peptide)
peptide: YCQGHFPQYMAKCL
modifications: cysteine pairing not given here; also: displayed on phage by fusion to pIII, linker and pIII sequence not given here
notes: as for B1
B3: Phage-1227 (peptide)
peptide: YCEGHVPEYLVKCL
modifications: cysteine pairing not given here; also: displayed on phage by fusion to pIII, linker and pIII sequence not given here
notes: as for B1
B4: Phage-1231 (peptide)
peptide: YCAGHTPEYLDKCL
modifications: cysteine pairing not given here; also: displayed on phage by fusion to pIII, linker and pIII sequence not given here
notes: as for B1
B5: Phage-1229 (peptide)
peptide: YCDGHLPEYMLKCL
modifications: cysteine pairing not given here; also: displayed on phage by fusion to pIII, linker and pIII sequence not given here
notes: as for B1
B6: Phage-1230 (peptide)
peptide: YCAGHLDVYMSKCL
modifications: cysteine pairing not given here; also: displayed on phage by fusion to pIII, linker and pIII sequence not given here
notes: as for B1
B7: Phage-1228 (peptide)
peptide: YCDGHSKEYMSKCL
modifications: cysteine pairing not given here; also: displayed on phage by fusion to pIII, linker and pIII sequence not given here
notes: as for B1
B8: Phage-1233 (peptide)
peptide: YCDGHEERYMAKCL
modifications: cysteine pairing not given here; also: displayed on phage by fusion to pIII, linker and pIII sequence not given here
notes: as for B1

Biological target: Anti-CD28 Fab (SEQ ID NOs: 696, 697)
Assay: phage binding ELISA; captured Fab pre-incubated with CD28 antigen as competitor, anti-M13 HRP
Target sequence in this assay (VH, as listed by the source, chain 1 of 2): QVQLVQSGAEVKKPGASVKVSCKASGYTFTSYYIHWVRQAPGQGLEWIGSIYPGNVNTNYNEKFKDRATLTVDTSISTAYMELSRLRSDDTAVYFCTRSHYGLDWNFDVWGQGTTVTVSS
Target sequence in this assay (VL, as listed by the source, chain 2 of 2): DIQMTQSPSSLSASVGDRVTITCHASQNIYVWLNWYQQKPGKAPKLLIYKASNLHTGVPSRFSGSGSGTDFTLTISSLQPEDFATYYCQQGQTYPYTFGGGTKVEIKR
Method: (§1) After panning, phage infected bacteria were plated out and colonies picked into 96 well blocks. Clonal phage was then amplified and separated from bacterial cells via centrifugation.
(§2) Clonal phage were harvested as crude supematants and screened via standard ELISAs. […] Prior to the addition of clonal phage, wells were incubated with blocking buffer and CD28 antigen or blocking buffer alone. Without washing or aspirating, clonal phage supematants were then added to the wells and incubated for a short time. Wells were then washed followed by detection of bound phage using a horse radish conjugated anti-M13 antibody. Clonal phage of interest were then sent for sequence analysis.

Binder | Anti-CD28 Fab signal in the presence of CD28
YCEGHDWMYMEKCL (Tested as clonal phage supernatant) [Phage-1248] | 0.07
YCDGHIAEYRSKCL (Tested as clonal phage supernatant) [Phage-1257] | 0.07
YCEGHLSEYIGKCL (Tested as clonal phage supernatant) [Phage-1258] | 0.06
YCDGHLLMYMEKCL (Tested as clonal phage supernatant) [Phage-1247] | 0.06
YCEGHISEYMGKCL (Tested as clonal phage supernatant) [Phage-1255] | 0.05
YCDGHTAQYMWKCL (Tested as clonal phage supernatant) [Phage-1259] | 0.07
YCDGHVLMYLAKCL (Tested as clonal phage supernatant) [Phage-1250] | 0.09
YCEGHSQEYKAKCF (Tested as clonal phage supernatant) [Phage-1249] | 0.07
YCDGHFTWYMAKCL (Tested as clonal phage supernatant) [Phage-1256] | 0.08
YCEGHLAAYMYKCL (Tested as clonal phage supernatant) [Phage-1252] | 0.07
YCDGHTEAYMSKCL (Tested as clonal phage supernatant) [Phage-1254] | 0.06
YCEGHSSAYMAKCL (Tested as clonal phage supernatant) [Phage-1251] | 0.07
YCDGHSTLYMQKCL (Tested as clonal phage supernatant) [Phage-1253] | 0.06

Biological target: T1, Anti-CD28 Fab (SEQ ID NOs: 696, 697)
T1 construct: In the phage ELISA the Fab was biotinylated and captured on neutravidin coated plates
Assay: phage binding ELISA; clonal phage on plate-captured biotinylated anti-CD28 Fab, anti-M13 HRP detection
T1 sequence (VH, as listed by the source, chain 1 of 2): as the sequence (VH, as listed by the source, chain 1 of 2) above
T1 sequence (VL, as listed by the source, chain 2 of 2): as the sequence (VL, as listed by the source, chain 2 of 2) above
Method: as §1, §2

Binder | Anti-CD28 Fab signal (phage binding ELISA)
B1 | 0.95
B2 | 0.97
B3 | 0.96
B4 | 0.95
B5 | 0.96
B6 | 0.96
B7 | 0.96
B8 | 0.94

Biological target: T2, Anti-CD28 Fab (SEQ ID NOs: 696, 697)
T2 construct: Biotinylated and captured on neutravidin coated plates in the phage ELISA
Assay: phage ELISA; biotinylated anti-CD28 Fab on neutravidin plate, clonal phage supernatant, anti-M13 HRP
T2 sequence (VH, as listed by the source, chain 1 of 2): as the sequence (VH, as listed by the source, chain 1 of 2) above
T2 sequence (VL, as listed by the source, chain 2 of 2): as the sequence (VL, as listed by the source, chain 2 of 2) above
Method: as §1, §2

Binder | Anti-CD28 Fab signal (phage binding ELISA)
YCEGHAHEYMEKCV [Phage-1237] | 0.93
YCDGHSFEYMAKCL [Phage-1241] | 0.92
YCAGHLEMYMSKCL [Phage-1245] | 0.91
YCAGHSAQYMWKCL [Phage-1240] | 0.92
YCDGHELMYMEKCL [Phage-1244] | 0.92
YCDGHIPQYVEKCL [Phage-1235] | 0.94
YCDGHSAEYLGKCL [Phage-1242] | 0.92
YCSGHVPEYMEKCL [Phage-1234] | 0.94
YCDGHHAEYMWKCL [Phage-1238] | 0.93
YCVGHSPEYIWKCL [Phage-1243] | 0.92
YCAGHAEIYMQKCL [Phage-1236] | 0.93
YCEGHTQAYLAKCL [Phage-1239] | 0.93
YCDGHIKEYMSKCL [Phage-1246] | 0.91

Biological target: Anti-CD28 Fab (SEQ ID NOs: 696, 697)
Assay: phage ELISA; biotinylated anti-CD28 Fab on neutravidin plate, clonal phage supernatant, anti-M13 HRP detection;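 further: crude supernatants of single phage clones picked after panning were screened for binding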
Target sequence in this assay (VH, as listed by the source, chain 1 of 2): as the sequence (VH, as listed by the source, chain 1 of 2) above
Target sequence in this assay (VL, as listed by the source, chain 2 of 2): as the sequence (VL, as listed by the source, chain 2 of 2) above
Method: as §1, §2

Binder | Phage binding ELISA, Anti-CD28 Fab signal
YCDGHSMTYMAKCI (also called Peptide-87 library clone) [Phage-1262] | 0.84
YCAGHAAIYMAKCL (also called Peptide-87 library clone) [Phage-1261] | 0.85
YCDGHKWEYLQKCL (also called Peptide-87 library clone) [Phage-1263] | 0.84
YCAGHSLQYLGKCY (also called Peptide-87 library clone) [Phage-1260] | 0.86

Biological target: T2, Anti-CD28 Fab (SEQ ID NOs: 696, 697)
Assay: phage ELISA; Fab-coated wells first incubated with CD28 antigen (competitor), then clonal phage, anti-M13 HRP
Method: as §1, §2

Binder | Anti-CD28 Fab signal in the presence of CD28 (phage binding ELISA)
YCEGHAHEYMEKCV [Phage-1237] | 0.07
YCDGHSFEYMAKCL [Phage-1241] | 0.06
YCAGHLEMYMSKCL [Phage-1245] | 0.07
YCAGHSAQYMWKCL [Phage-1240] | 0.07
YCDGHELMYMEKCL [Phage-1244] | 0.06
YCDGHIPQYVEKCL [Phage-1235] | 0.08
YCDGHSAEYLGKCL [Phage-1242] | 0.07
YCSGHVPEYMEKCL [Phage-1234] | 0.06
YCDGHHAEYMWKCL [Phage-1238] | 0.06
YCVGHSPEYIWKCL [Phage-1243] | 0.06
YCAGHAEIYMQKCL [Phage-1236] | 0.05
YCEGHTQAYLAKCL [Phage-1239] | 0.1
YCDGHIKEYMSKCL [Phage-1246] | 0.08

Biological target: Anti-CD28 Fab (SEQ ID NOs: 696, 697)
Assay: phage binding ELISA; biotinylated Fab on neutravidin plate, clonal phage supernatant, anti-M13 HRP;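 further: clones picked after panning, added to wells pre-incubated with CD28 antigen or with blocking buffer only, no wash before phage addition, bound phage read after washing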
Target sequence in this assay (VH, as listed by the source, chain 1 of 2): as the sequence (VH, as listed by the source, chain 1 of 2) above
Target sequence in this assay (VL, as listed by the source, chain 2 of 2): as the sequence (VL, as listed by the source, chain 2 of 2) above
Method: as §1, §2

Binder | Anti-CD28 Fab (SEQ ID NOs: 696, 697) signal
YCEGHDWMYMEKCL (Tested as clonal phage supernatant) [Phage-1248] | 0.91
YCDGHIAEYRSKCL (Tested as clonal phage supernatant) [Phage-1257] | 0.87
YCEGHLSEYIGKCL (Tested as clonal phage supernatant) [Phage-1258] | 0.87
YCDGHLLMYMEKCL (Tested as clonal phage supernatant) [Phage-1247] | 0.91
YCEGHISEYMGKCL (Tested as clonal phage supernatant) [Phage-1255] | 0.88
YCDGHTAQYMWKCL (Tested as clonal phage supernatant) [Phage-1259] | 0.87
YCDGHVLMYLAKCL (Tested as clonal phage supernatant) [Phage-1250] | 0.9
YCEGHSQEYKAKCF (Tested as clonal phage supernatant) [Phage-1249] | 0.9
YCDGHFTWYMAKCL (Tested as clonal phage supernatant) [Phage-1256] | 0.87
YCEGHLAAYMYKCL (Tested as clonal phage supernatant) [Phage-1252] | 0.89
YCDGHTEAYMSKCL (Tested as clonal phage supernatant) [Phage-1254] | 0.88
YCEGHSSAYMAKCL (Tested as clonal phage supernatant) [Phage-1251] | 0.9
YCDGHSTLYMQKCL (Tested as clonal phage supernatant) [Phage-1253] | 0.88

Biological target: Anti-CD28 Fab (SEQ ID NOs: 696, 697)
Assay: phage ELISA; Fab on plate pre-incubated with CD28 antigen (competitor), clonal phage supernatant, anti-M13 HRP detection
Target sequence in this assay (VH, as listed by the source, chain 1 of 2): as the sequence (VH, as listed by the source, chain 1 of 2) above
Target sequence in this assay (VL, as listed by the source, chain 2 of 2): as the sequence (VL, as listed by the source, chain 2 of 2) above
Method: as §1, §2

Binder | Phage binding ELISA, Anti-CD28 Fab signal in the presence of CD28
YCDGHSMTYMAKCI (also called Peptide-87 library clone) [Phage-1262] | 0.06
YCAGHAAIYMAKCL (also called Peptide-87 library clone) [Phage-1261] | 0.07
YCDGHKWEYLQKCL (also called Peptide-87 library clone) [Phage-1263] | 0.06
YCAGHSLQYLGKCY (also called Peptide-87 library clone) [Phage-1260] | 0.06

Biological target: T1, Anti-CD28 Fab (SEQ ID NOs: 696, 697)
Assay: phage binding ELISA on plate-captured anti-CD28 Fab pre-incubated with CD28 antigen as competitor
Method: as §1, §2

Binder | Anti-CD28 Fab signal in the presence of CD28 (phage binding ELISA)
B1 | 0.08
B2 | 0.07
B3 | 0.06
B4 | 0.06
B5 | 0.09
B6 | 0.09
B7 | 0.07
B8 | 0.06
